Experimental data: patent US10801046B2, “Methods and materials for biosynthesizing multifunctional, multivariate molecules via carbon chain modification” (INVISTA NORTH AMERICA S.A.R.L., priority 2016, dated 2020)

B1: SEQ ID NO: 208: Ascaris suum carboxylate reductase (protein, listed as Ascaris suum)
chain: MRYWWKTSHSNYKLDAVCDINNQTRELPVSVASCKDGSRVAACLDGDHLAPFIHEDALTLYEGVRRGLRVSNNGPMLGYRKKQPDGSEPYVWLTYKEVIDRAVDFAYGLLDVGIPAGQKTFIGVYAKNRPEWVIAEQGTYNNNSVLVPLYETLGPDACTFIINQSEMSMVICDTEVKAAGLLKEKENIPTLKYLVVMEDYTNGLREAAAREGVYVYHFLDIEKRGREFVNKPALQIPSPGDVCTICYTSGTTGAPKGVMLTHGNVIAAATALTFVRNINFCETDVVISFLPLAHMFERLLECIIFQTGAHVGFFSGDIRRLPEDIKELRPTVIPLVPRVLNRIYDKVMSEVNKSFIKKAVFHFALAFKVRELRNGIVRNDSVFDKLVFNKIRDAMGGRVKLMVTGSAPLAEKVMTFARAAMGCVVLEGYGQTECAAASTLGIEADTRAGHVGIPSICNAVKLVDVPELEYYAKDMVGEVCIRGFNVFKGYYKNDELTREVLDDQGWLHTGDVGRWTENGTLQIIDRKKHIFKLSQGEYVAPEKIEGIYARSKYVAQSFVHGESLKTCLVGVIVPDPEALERVAAERFGLKDVKLKELCSNEAVRQLILEDITAVGKKAGLFSFEQVKDIFLTPDAFSVGNDLLTPTLKNKRPKLKEHFAAQLESMYSKLN
B2: SEQ ID NO: 61: Congregibacter litoralis KT71 thioesterase (protein)
chain: MGLLLGLALLLTGQLARAESTAGERPRILVVGDSISAAYGMSLEQGWAALLERRLQTRWPGAQVINASISGDTSAGGARRLPKLLAEHSPDLVVIELGGNDGLRGYPTSKLEANLSFMAEAASTAGAEVLILPMEIPPNYGPRYTRSFRESFERAATDTGATLGPFLLDGIATEEQLMQQDGIHPTVEAQPMITDIVQPVIEALLALREAS
modifications: Congregibacter litoralis KT71
notes: Congregibacter litoralis KT71 thioesterase
B3: SEQ ID NO: 76: Thermovirga lienii thioesterase (protein, listed as Thermovirga lienii)
chain: MYEHNFRISYSQAGALGRLKLTGAMNLCQDIADDHAERVGVSVADLLKQSKTWVLHRFKMTIQTMPQRGDLVTIKTWYRPEKNLYSLRNFEMLDCNGKKLLSVQTSWVVVDMNRGRPLRLDRVMPEAYDKNKDENLEVSFQELLLPEKVDVKKTIQVAVTDLDMNFHVNNVHYLRWALDTIPVEILKEYKPKGVEIAFKRPAFYGDSVISEVGIDKNSCSILCRHHIYGEKDGQSMAVISTEWEKISREER
modifications: Thermovirga lienii (strain ATCC BAA-1197 / DSM 17291 / Cas60314)
notes: Thermovirga lienii thioesterase
B4: SEQ ID NO: 207: Dictyostelium discoideum carboxylate reductase (protein, listed as Dictyostelium discoideum)
chain: MINNWLAVGLLVVSGILAFNWKRKHPYGQTVEIGEKPENGGRIRRNSACADHLISFLEDDEIYTLYDSLVKSCKKYGERKCFGERKKDSNGNLGKFEWISYNTYLERCEYIQQGLCELGLKPKSKVGIFSKNRLEWLIVHSASFIQSYCVVSFYETLGVESLSYVTEHAEIGLAFCSAETLQKTLDIAKGVKVLKTIICFDSIDKEHYNIAKELGVTLYTYDEIMKKGKEANGKHKHTPPTPDTLSTIMYTSGTTGPPKGVMITHKNLTSVVCAVSDFIKVYDTDVHYSYLPYAHVLERVVILAAFHFGAAIGIFSGDISNILVEVKLLSPTLFIGVPRVFERIKTNVFKEISKKPALLRTLFNGAYNLKYLSIQHGFKLPIIEKVLDLVFFSKIKQALGGKVRVILSGSAPLSFDTEVFLRVVMCCCVLQGYGASEGCGGDACKRLDDESVGTIGPPFASNEIKLVDVPELGYDSNGEVQTGEVCLRGPSISSGYYKDEEKTREEFKDGWFHTGDIGRWNRDGSLSIVDRKKNIFKLSQGEYVAVEKIETIVVKSEYVEQVCIYGDSQKSCVIAIIHPHPESCSEWAGSKKTDKDIKEICKNQDFIKVVLDDIIKNCKKSGLHGFEIPKAIHLTPEAFSDQNNLLTPSFKLKRHEIKKYFEDEIKKLYSKLD
B5: SEQ ID NO: 75: Clostridium thermocellum thioesterase (protein, listed as Clostridium thermocellum)
chain: MQKKRFSKKYEVHYYEINSMQEATLLSLLNYMEDCAISHSTSAGYGVNELLAADAGWVLYRWLIKIDRLPKLGETITVQTWASSFERFYGNREFIVLDGRDNPIVKASSVWIYFNIKKRKPMRIPLEMGDAYGIDETRALEEPFTDFDFDFEPKVIEEFTVKRSDIDTNSHVNNKKYVDWIMETVPQQIYDNYKVTSLQIIYKKESSLGSGIKAGCVIDEQNTDNPRLLHKIWDKNTGLELVSAETIWQKIQS
modifications: Clostridium thermocellum (strain ATCC 27405 / DSM 1237 / NBRC 103400 / NCIMB 10682 / NRRL B-4536 / VPI 7372)
notes: Clostridium thermocellum thioesterase
B6: SEQ ID NO: 94: Paenibacillus sp. IHBB 10380 thioesterase (protein)
chain: MGNIWTEEHLIYSNEIDYKANCRLSNLLSLMQRAADGDVEHMGGTRDQMVAHHLGWMLTTIDLACERMPIFNETLKITTWNKGTKGPLWLRDFRIFDENNQEIAKACTLWALVDIDKRKVLRPSAYPFNINSNHEDSVGPVPDKLNISDEVELYHSYSITVRYSGIDSNGHLNNSRYADLCMDTLTQSELDTLSILGFHITYYHEVKSAEQIQVLRSDHLEGYIYFRGQSLEDERYFEACLHVG
modifications: Paenibacillus sp. IHBB 10380
notes: Paenibacillus sp; IHBB 10380 thioesterase

Columns and labels:
[1] = In vivo carboxylate reductase screening, substrate consumption by LC-MS, monomethyl heptanedioate; type: cell-based, Escherichia coli; settings: 541 enzymes screened in vivo
Experimental: To screen carboxylate reductases in vivo, […] T7- pUC expression vectors was co-transformed into T7 Express lysY/Iq with the phosphopantetheinyl transferase sfp from Bacillus subtilis on a T7-pCDF expression vector. Biological duplicates of the resulting strains were incubated in 0.5 mL of terrific broth containing either 1 g/L heptanedioate or 1 g/L monomethyl heptanedioate and supplemented with 0.4 mM IPTG in 96-well deep well plates. The plates were incubated for 30 h at 30° C. in a shaking incubator. The cells were then pelleted, and culture supernatants from the same strains in media containing either heptanedioate or monomethyl heptanedioate were combined. The combined supernatants were analyzed by LC-MS to determine the concentration of heptanedioate and monomethyl heptanedioate. Carboxylate reductase activity on heptanedioate or monomethyl heptanedioate was reflected by consumption of the respective substrate in the medium.

[2] = system: heptanedioyl-ACP methyl ester; assay: Cell lysate in vitro thioesterase screen (DTNB, absorbance at 410 nm) on heptanedioyl-ACP methyl ester; type: biochemical; settings: 0.33 mM acyl-ACP substrate, 30° C., 30 min
[3] = system: heptanedioyl-ACP methyl ester; type: cell-based, Escherichia coli; settings: top 150 hits screened in vivo

Row | Molecule | monomethyl heptanedioate activity [1] | activity toward heptanedioyl-ACP methyl ester (hydrolysis) [2] | activity toward heptanedioyl-ACP methyl ester in vivo [3]
1 | B1 | most monomethyl heptanedioate activity |  | 
2 | B2 |  | notable for their activity toward heptanedioyl-ACP methyl ester | 
3 | B3 |  | notable for their activity toward heptanedioyl-ACP methyl ester | showed activity toward heptanedioyl-ACP methyl ester
4 | B4 | most monomethyl heptanedioate activity |  | 
5 | B5 |  | notable for their activity toward heptanedioyl-ACP methyl ester | showed activity toward heptanedioyl-ACP methyl ester
6 | B6 |  | notable for their activity toward heptanedioyl-ACP methyl ester | 
